Series [1] concerns the molecule itself. Description: SDS-PAGE and immunoblot; 25 μl of milk whey from infected udder quarters, run under reducing conditions; detected with immunoaffinity-purified antibodies raised to rS100A12 or rPTX3. Background: Immunoblotting shows a protein as a band on a membrane.
Series [2] deals with the molecule itself. The series can be described thus: SDS-PAGE and immunoblot; culture supernatant of transfected Trichoplusia ni cells, reducing conditions; results not shown.
Series [3] concerns the molecule itself. Description: SEC; gel permeation chromatography of purified rtnPTX3 in solution; result not shown. On the technique in general: Size exclusion chromatography separates by hydrodynamic size, large species first.
A further series addresses T1, human C1q (human, UniProt P02745 23-245; P02746 28-253; P02747 29-245).
T1 construct: Complement C1q subcomponent subunit A, human; Complement C1q subcomponent subunit B, human; Complement C1q subcomponent subunit C, human; also called C1q component of the human complement system; source: bought: Merck; copies: + +
The series can be described thus: ELISA; 500 ng human C1q coated on 96-well plates in PBS pH 7.4 with 1 mM CaCl2 and 1 mM MgCl2; rtnPTX3 (12.5 ng/well, two preparations) added in PBS-Tween 20, 1 h at 37°C; bound rtnPTX3 detected with rabbit antibody raised to rPTX3. The conditions noted are these: both partners purified. A general note: ELISA stands for enzyme-linked immunosorbent assay.

“And” between values parts separate entries of the source, which are not always exact repeats. Equal entries are not always repeated.

In general, stoichiometry N refers to the number of molecules, sites or subunits per partner or assembly.

T1 sequence (P02745 23-245, chain 1 of 3): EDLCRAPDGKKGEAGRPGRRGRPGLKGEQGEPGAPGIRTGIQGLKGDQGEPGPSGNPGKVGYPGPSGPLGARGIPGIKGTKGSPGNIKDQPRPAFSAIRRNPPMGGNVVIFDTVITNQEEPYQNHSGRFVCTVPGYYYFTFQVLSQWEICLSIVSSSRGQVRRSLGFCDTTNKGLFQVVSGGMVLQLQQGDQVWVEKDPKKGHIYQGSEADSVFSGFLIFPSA
T1 sequence (P02746 28-253, chain 2 of 3): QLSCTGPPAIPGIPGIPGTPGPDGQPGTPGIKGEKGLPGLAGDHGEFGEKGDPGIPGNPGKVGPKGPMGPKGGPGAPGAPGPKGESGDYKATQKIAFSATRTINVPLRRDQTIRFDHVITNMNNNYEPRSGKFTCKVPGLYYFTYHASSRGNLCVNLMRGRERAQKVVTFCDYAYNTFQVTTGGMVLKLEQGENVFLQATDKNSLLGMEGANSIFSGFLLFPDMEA
T1 sequence (P02747 29-245, chain 3 of 3): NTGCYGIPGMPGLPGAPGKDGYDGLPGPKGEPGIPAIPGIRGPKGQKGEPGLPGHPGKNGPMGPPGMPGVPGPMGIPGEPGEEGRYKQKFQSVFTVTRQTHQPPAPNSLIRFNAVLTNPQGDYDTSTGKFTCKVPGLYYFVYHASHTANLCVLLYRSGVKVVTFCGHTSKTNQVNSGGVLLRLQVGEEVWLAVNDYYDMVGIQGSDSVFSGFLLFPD

B1: S100 calcium-binding protein A12 (S100A12), endogenous in bovine milk whey (natural protein, bovine (endogenous in milk whey), UniProt P79105 1-92, looked up)
chain: MTKLEDHLEGIINIFHQYSVRVGHFDTLNKRELKQLITKELPKTLQNTKDQPTIDKIFQDLDADKDGAVSFEEFVVLVSRVLKTAHIDIHKE
notes: 92 amino acids, predicted size 10.7 kDa; also called calgranulin C; source: endogenous, milk whey from udder quarters infected with S. aureus
Take B1: the “stoichiometry N” value in series [1] was 2 and 3.

B2: Recombinant bovine PTX3 (rtnPTX3) produced in Trichoplusia ni insect cells (natural protein, UniProt Q0VCG9 18-382, looked up)
chain: ENSDDYELMYVNLDNEIDNGLHPTEDPTPCDCSRENSEWDKLFTMLENSQMREGMLLQATDVMLRGELQKLQAELGRLEGSLQKLCGPEAPSETRLARALDDLLQASRDAGRRLARLEDAGALRPQEEAGRALGAVLEELRRTRADLRAVQGWAASRWLPAGCETAILFPMRSKKIFASVHPVTPMKLETFSACIWVKATEVLNKTVLFSYGTKRNPYEIQLYLSYRSIMLVVGGEENRLVADAVISLGTWTHLCSTWDSKKGHMALWVNGDSVATAVDMATGHVVPEGGILQIGQEKNGCCVGGGFDETLAFSGRLTGFNIWEGVLSNEEIREAGGAESCHIRGNVVGWGVTEIQPHGGAQYVY
notes: predicted size of the mature protein 40.2 kDa; The vector pIEx5 supplies the signal peptide of adipokinetic hormone for secretion; A few vector-derived residues at the N-terminus cannot be excluded; Two bands of 43 and 45 kDa, possibly differing in glycosylation at N221; also called Pentraxin-3; source: Trichoplusia ni (High Five) insect cells, transiently transfected with pIEX5-PTX3, secreted …
With B2, the “stoichiometry N” value came out at 2 in series [2] and 10 in series [3]. Besides, in the series with human C1q, the binding result is given as “binds”.

B3: Pentraxin-3 (PTX3), endogenous in bovine milk whey (natural protein, bovine (endogenous in milk whey), UniProt Q0VCG9 18-382, looked up)
chain: ENSDDYELMYVNLDNEIDNGLHPTEDPTPCDCSRENSEWDKLFTMLENSQMREGMLLQATDVMLRGELQKLQAELGRLEGSLQKLCGPEAPSETRLARALDDLLQASRDAGRRLARLEDAGALRPQEEAGRALGAVLEELRRTRADLRAVQGWAASRWLPAGCETAILFPMRSKKIFASVHPVTPMKLETFSACIWVKATEVLNKTVLFSYGTKRNPYEIQLYLSYRSIMLVVGGEENRLVADAVISLGTWTHLCSTWDSKKGHMALWVNGDSVATAVDMATGHVVPEGGILQIGQEKNGCCVGGGFDETLAFSGRLTGFNIWEGVLSNEEIREAGGAESCHIRGNVVGWGVTEIQPHGGAQYVY
notes: Pentraxin-3 (PTX3), bovine, secreted into milk; predicted Mw of the mature protein 40.2 kDa; one potential N-linked glycosylation site (Asn221); source: endogenous, milk whey from udder quarters infected with S. aureus
For B3, in series [1], the “stoichiometry N” value stood at 2.
